Assay results published in patent EP4703382A1 (Kanglitai Biomedical (Qingdao) Co., Ltd., dated 2026).
Where “and” joins values, the source holds several entries; their conditions need not be identical. Equal values may be shown once. Read-outs that look alike come from different tables or passages of the source.

Tests used:
[1] = biological target: T1, human PDL1-Fc fusion protein (human); assay: ELISA, human PDL1-Fc coated 200 ng/well, anti-His HRP
T1 construct: also called human PDL1-Fc recombinant protein
T1 sequence (chain, as listed by the source limits assumed): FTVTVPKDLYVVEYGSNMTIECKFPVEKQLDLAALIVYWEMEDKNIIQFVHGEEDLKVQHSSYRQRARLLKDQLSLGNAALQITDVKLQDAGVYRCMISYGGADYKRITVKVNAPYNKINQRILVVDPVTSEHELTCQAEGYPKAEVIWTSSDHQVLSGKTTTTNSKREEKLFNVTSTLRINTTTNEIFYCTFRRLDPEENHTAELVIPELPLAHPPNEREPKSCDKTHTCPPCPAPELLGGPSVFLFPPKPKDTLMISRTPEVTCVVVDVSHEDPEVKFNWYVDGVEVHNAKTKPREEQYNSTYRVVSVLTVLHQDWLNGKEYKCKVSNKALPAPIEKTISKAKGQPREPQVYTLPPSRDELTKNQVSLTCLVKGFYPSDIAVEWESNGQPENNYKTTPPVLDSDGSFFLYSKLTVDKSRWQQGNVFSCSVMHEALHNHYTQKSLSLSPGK

[2] = biological target: T2, recombinant protein PD-L1-His (human, UniProt Q9NZQ7 19-238); assay: competitive ELISA, PDL1-his coated, competitor PD1-Fc 50 µg/mL
T2 construct: also called PD-L1-his fusion protein; human PDL1-his protein
T2 sequence (Q9NZQ7 19-238 limits assumed): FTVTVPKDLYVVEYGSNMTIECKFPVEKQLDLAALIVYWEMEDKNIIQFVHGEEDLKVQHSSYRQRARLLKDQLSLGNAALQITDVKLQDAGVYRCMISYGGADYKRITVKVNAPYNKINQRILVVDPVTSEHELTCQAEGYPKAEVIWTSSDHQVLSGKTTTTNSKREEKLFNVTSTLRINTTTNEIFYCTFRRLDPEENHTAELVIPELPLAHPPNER

[3] = biological target: T2, recombinant protein PD-L1-His; assay: as above; remark: listed apart in the source
[4] = biological target: T1, human PDL1-Fc fusion protein; assay: ELISA, human PDL1-Fc coated 200 ng/well, anti-His HRP; remark: listed apart in the source
[5] = biological target: T3, human PD-L1 expressed on Raji cells (human, UniProt Q9NZQ7 19-290); assay: flow cytometry on Raji cells expressing human PD-L1, anti-His FITC
T3 construct: whole, on cells; also called Raji-PDL1; PDL1 protein expressed on Raji cells
T3 sequence (Q9NZQ7 19-290): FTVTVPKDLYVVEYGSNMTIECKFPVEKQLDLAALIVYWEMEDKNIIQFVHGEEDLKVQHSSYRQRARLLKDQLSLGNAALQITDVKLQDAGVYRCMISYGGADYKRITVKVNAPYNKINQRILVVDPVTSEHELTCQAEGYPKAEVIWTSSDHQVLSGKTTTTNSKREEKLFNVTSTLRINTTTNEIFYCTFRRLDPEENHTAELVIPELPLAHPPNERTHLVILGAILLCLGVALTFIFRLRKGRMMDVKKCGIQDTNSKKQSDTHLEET

[6] = biological target: T1, human PDL1-Fc fusion protein; assay: BLI (ForteBIO Octet QKe), PDL1-Fc loaded, analyte 100 nM
[7] = biological target: T3, human PD-L1 expressed on Raji cells; assay: flow cytometry competition on Raji-PDL1 cells, competitor PD1-Fc
[8] = biological target: T3, human PD-L1 expressed on Raji cells; assay: as above; remark: listed apart in the source
HAS = biological target: T4, HAS (UniProt P02768 25-609); assay: ELISA, 200 ng/well coated, anti-His HRP
T4 construct: unrelated protein of the specificity ELISA; label read as HSA

BSA = biological target: T5, BSA (UniProt P02769 25-607); assay: ELISA, 200 ng/well coated, anti-His HRP
T5 construct: unrelated protein of the specificity ELISA
T5 sequence (P02769 25-607 limits assumed): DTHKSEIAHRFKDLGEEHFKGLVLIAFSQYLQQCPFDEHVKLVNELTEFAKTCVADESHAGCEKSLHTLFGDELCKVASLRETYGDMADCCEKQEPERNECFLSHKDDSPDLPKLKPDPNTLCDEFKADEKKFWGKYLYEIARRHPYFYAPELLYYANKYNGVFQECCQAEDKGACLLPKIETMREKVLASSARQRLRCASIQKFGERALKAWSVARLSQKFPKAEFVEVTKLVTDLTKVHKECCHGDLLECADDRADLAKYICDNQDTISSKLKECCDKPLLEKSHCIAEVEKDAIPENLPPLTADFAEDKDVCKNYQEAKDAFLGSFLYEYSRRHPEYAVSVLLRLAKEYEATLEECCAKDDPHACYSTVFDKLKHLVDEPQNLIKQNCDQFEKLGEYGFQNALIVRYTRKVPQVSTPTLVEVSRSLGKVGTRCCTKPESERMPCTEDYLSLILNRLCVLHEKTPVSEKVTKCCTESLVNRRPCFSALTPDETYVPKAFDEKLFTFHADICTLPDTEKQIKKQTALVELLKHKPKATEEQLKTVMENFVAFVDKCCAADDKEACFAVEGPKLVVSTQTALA

[9] = biological target: T1, human PDL1-Fc fusion protein; assay: BLI (ForteBIO Octet QKe), PDL1-Fc loaded, analyte 100 nM; remark: listed apart in the source
[10] = biological target: T1, human PDL1-Fc fusion protein; assay: ELISA, human PDL1-Fc coated 200 ng/well, anti-His HRP; remark: listed apart in the source

Binder | EC50 [1] [µg/mL] | IC50 [2] [µg/mL] | IC50 [3] [µg/mL] | EC50 [4] | EC50 [5] [µg/mL] | Kd [6] [nM] | koff [6] [s⁻¹] | kon [6] [M⁻¹ s⁻¹] | IC50 [7] [µg/mL] | IC50 [8] [µg/mL] | binding result (HAS) | binding result (BSA) | Kd [9] [nM] | koff [9] [s⁻¹] | kon [9] [M⁻¹ s⁻¹] | EC50 [10] [µg/mL]
PDL1-1 (VHH, Alpaca nanobody expressed in E. coli, purified on HisTrap and detected with anti-His antibody; also called PD-L1-1 heavy chain single-domain antibody; P1) VHH: QVQLQESGGGLVQPGGSLTLSCAASGFTVSNSAVSWARQAPGKGLEWVSLIDSNRNTVYAQSVRGRFTISRDNVKNTVYLQMNSLKPEDTAVYYCAKGIWGSTLTGQGTQVTVSS | 0.00825 | 5.8 | 2.32 | 0.0421 µg/mL and 3.48 nM | 0.0606 | 2.96 | 0.00532 | 1.8e+06 | 0.0626 | 0.477 | no binding (tested: 0.2 µg) | no binding (tested: 0.2 µg) | 3.39 | 0.00563 | 1.66e+06 | 
PDL1-3 (VHH, Alpaca nanobody expressed in E. coli, His-tagged) VHH: QVQLQESGGGLVQPGGSLRLSCAGSGSIFRITPVAWYRQAPEKQRELVAVITDNGSTDYGDFVKGRFTISRDNAKNTVYLQMNSLKPEDTAVYYCNSRARPVRWTWGQGTQVTVSS | 0.0128 |  | 1.31 |  | 0.073 |  |  |  | 0.0406 |  | no binding (tested: 0.2 µg) | no binding (tested: 0.2 µg) |  |  |  | 
PDL1-13 (VHH, Alpaca nanobody expressed in E. coli, His-tagged) VHH: QVQLQESGGGLVQPGGSLRLSCAASGFTFSTSFVSWVRQAPGKGLEWVSRISPGGASTSYADSVKGRFTISRDNAENTLYLQMNSLKPEDTALYYCAREIYSGRFSGFDYWGQGTQVTVSS |  |  |  |  |  |  |  |  |  |  | no binding (tested: 0.2 µg) | no binding (tested: 0.2 µg) |  |  |  | 0.0661
PDL1-14 (VHH, Alpaca nanobody expressed in E. coli, His-tagged) VHH: QVQLQESGGGLVQPGGSLRLSCAASGIISDINMVAWYRQAPGKQRELVAKIFRGGSTYYTDFVKGRFTISRENAKNTVYLQMNSLKPDDTAVYYCNARIQIRADRDYSDYWGQGTQVTVSS |  |  |  |  |  |  |  |  |  |  | no binding (tested: 0.2 µg) | no binding (tested: 0.2 µg) |  |  |  | 0.123
